The record followed here is US20250257133A1 (ADAGENE PTE, published 2025).

Like-named read-outs stand apart in the source and are kept apart here.

Test [1] deals with Mouse CD28 (ELISA of Example 13) (mouse, UniProt P31041 20-150, limits assumed). Briefly: ELISA. A general note: In an ELISA, binding on a coated surface is turned into a signal by an enzyme label.
Test [2] deals with T1, Human CD28 (ELISAs of Examples 4 and 13) (human, UniProt P10747 19-152, limits assumed). Description: ELISA.
In test [3] the target is T2, Mouse CD28 on cells (mouse, UniProt P31041 20-218).
T2 construct: also called CD28 on mouse T cells
T2 sequence (P31041 20-218 limits assumed): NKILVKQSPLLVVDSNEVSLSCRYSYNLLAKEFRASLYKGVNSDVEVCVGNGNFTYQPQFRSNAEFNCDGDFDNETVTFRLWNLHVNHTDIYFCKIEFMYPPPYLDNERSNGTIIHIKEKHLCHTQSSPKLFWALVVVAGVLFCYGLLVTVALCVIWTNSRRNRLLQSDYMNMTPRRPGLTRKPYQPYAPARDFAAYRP
Description: flow cytometry on mouse T cells, median fluorescence intensity; drawn table. Details: AUC: unit not given beside the values.

Test [4] deals with T1, Human CD28 (ELISAs of Examples 4 and 13). Description: ELISA. The source holds these as a separate data set.

Mouse CD28 (ELISA of Example 13), sequence (P31041 20-150 limits assumed): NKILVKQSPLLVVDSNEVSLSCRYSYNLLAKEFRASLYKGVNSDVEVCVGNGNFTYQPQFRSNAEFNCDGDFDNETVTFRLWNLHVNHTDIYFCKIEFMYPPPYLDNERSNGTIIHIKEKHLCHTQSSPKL

B1: TY30120 (bispecific antibody, human IgG1, kappa, N297A)
light: DIQLTQSPSSLSASVGDRVTITCRASQSIRKYLNWYQQKPGKAPKLLIYAASTLQSGVPSRFSGSGSGTDFTLTISSLQPEDFATYFCSQGTHVPFTFGQGTKVEIKRTVAAPSVFIFPPSDEQLKSGTASVVCLLNNFYPREAKVQWKVDNALQSGNSQESVTEQDSKDSTYSLSSTLTLSKADYEKHKVYACEVTHQGLSSPVTKSFNRGEC
heavy: EVQLVESGGGLVQPGGSLRLSCAASGFTFSGYGIHWVRQAPGKGLEWIGWISPSGGDTKYAQKFQGRVTISRDNSKNTLYLQLNSLRAEDTAVYYCARGGTVVYFDYWGQGTLVTVSSASTKGPSVFPLAPSSKSTSGGTAALGCLVKDYFPEPVTVSWNSGALTSGVHTFPAVLQSSGLYSLSSVVTVPSSSLGTQTYICNVNHKPSNTKVDKKVEPKSCDKTHTCPPCPAPELLGGPSVFLFPPKPKDTLMISRTPEVTCVVVDVSHEDPEVKFNWYVDGVEVHNAKTKPREEQYASTYRVVSVLTVLHQDWLNGKEYKCKVSNKALPAPIEKTISKAKGQPREPQVYTLPPSRKKLTKNQVKLTCLVKGFYPSDIAVEWESNGQPENNYKTTPPVLDCDGSFFLYSKLTVDKSRWQQGNVFSCSVMHEALHNHYTQKSLSLSPGK
chain: EVQLVESGGGLVQPGGSLRLSCAASGFSLSTSGVGVSWIRQAPGKGLEWIGEIYHSGSTYYSPSLKSRVTISRDNSKNTLYLQLNSLRAEDTAVYYCARYGYYYYDFDYWGQGTLVTVSSGGGGSGGGGSGGGGSGGGGSDIQLTQSPSSLSASVGDRVTITCRASQSVDFHGISFLHWYQQKPGKAPKLLIYAASSLQSGVPSRFSGSGSGTDFTLTISSLQPEDFATYYCQQSYRSPRTFGQGTKVEIKEPKSSDKTHTCPPCPAPELLGGPSVFLFPPKPKDTLMISRTPEVTCVVVDVSHEDPEVKFNWYVDGVEVHNAKTKPREEQYASTYRVVSVLTVLHQDWLNGKEYKCKVSNKALPAPIEKTISKAKGQPREPQVYTDPPSRDELTKNQVSLTCLVDGFYPSDIAVEWESNGQPENCYKTTPPVLDSDGSFFLYSKLTVDKSRWQQGNVFSCSVMHEALHNHYTQDSLSLSPGK
notes: anti-B7H3 Fab x CD28 scFv BC10599 (VH-VL)-Fc
In general, EC50 refers to the concentration at which the effect is half-maximal. Take B1: the EC50 in test [1] was found to be 74.2 nM. Further, the midpoint of the response in test [2], the EC50, lay at 3.03 nM. In test [3], the AUC worked out at 4380, a half-maximal effect (EC50) was put at 145 nM and the “Max MFI” value was 2710.

B2: TY29815 (bispecific antibody, human IgG1, kappa, N297A)
light: DIQLTQSPSSLSASVGDRVTITCRASQSIPSFLNWYQQKPGKAPKLLIYAASSLQSGVPSRFSGSGSGTDFTLTISSLQPEDFATYYCQHYISWPRQFTFGQGTKVEIKRTVAAPSVFIFPPSDEQLKSGTASVVCLLNNFYPREAKVQWKVDNALQSGNSQESVTEQDSKDSTYSLSSTLTLSKADYEKHKVYACEVTHQGLSSPVTKSFNRGEC
heavy: EVQLVESGGGLVQPGGSLRLSCAASGYSISSGYYWGWIRQAPGKGLEWIGIIYPSGGGTNYAQKFQGRVTISRDNSKNTLYLQLNSLRAEDTAVYYCARGGGLGFDYWGQGTLVTVSSASTKGPSVFPLAPSSKSTSGGTAALGCLVKDYFPEPVTVSWNSGALTSGVHTFPAVLQSSGLYSLSSVVTVPSSSLGTQTYICNVNHKPSNTKVDKKVEPKSCDKTHTCPPCPAPELLGGPSVFLFPPKPKDTLMISRTPEVTCVVVDVSHEDPEVKFNWYVDGVEVHNAKTKPREEQYASTYRVVSVLTVLHQDWLNGKEYKCKVSNKALPAPIEKTISKAKGQPREPQVYTLPPSRKKLTKNQVKLTCLVKGFYPSDIAVEWESNGQPENNYKTTPPVLDCDGSFFLYSKLTVDKSRWQQGNVFSCSVMHEALHNHYTQKSLSLSPGK
chain: EVQLVESGGGLVQPGGSLRLSCAASGFSLSTGGVGVSWIRQAPGKGLEWIGEIYHSGSTYYSPSLKSRVTISRDNSKNTLYLQLNSLRAEDTAVYYCARYEYYYYDFDYWGQGTLVTVSSGGGGSGGGGSGGGGSGGGGSDIQLTQSPSSLSASVGDRVTITCRASQSVDFHGISFLHWYQQKPGKAPKLLIYAASSLQSGVPSRFSGSGSGTDFTLTISSLQPEDFATYYCQQSYRSPRTFGQGTKVEIKEPKSSDKTHTCPPCPAPELLGGPSVFLFPPKPKDTLMISRTPEVTCVVVDVSHEDPEVKFNWYVDGVEVHNAKTKPREEQYASTYRVVSVLTVLHQDWLNGKEYKCKVSNKALPAPIEKTISKAKGQPREPQVYTDPPSRDELTKNQVSLTCLVDGFYPSDIAVEWESNGQPENCYKTTPPVLDSDGSFFLYSKLTVDKSRWQQGNVFSCSVMHEALHNHYTQDSLSLSPGK
notes: also called TY29815 (WT); wild type anti-PD-L1xCD28 bsAb
For B2, it took 22.3 nM to reach a half-maximal effect in test [4] (EC50).

B3: TY30121 (bispecific antibody, human IgG1, kappa, N297A)
light: DIQLTQSPSSLSASVGDRVTITCRASQSIRKYLNWYQQKPGKAPKLLIYAASTLQSGVPSRFSGSGSGTDFTLTISSLQPEDFATYFCSQGTHVPFTFGQGTKVEIKRTVAAPSVFIFPPSDEQLKSGTASVVCLLNNFYPREAKVQWKVDNALQSGNSQESVTEQDSKDSTYSLSSTLTLSKADYEKHKVYACEVTHQGLSSPVTKSFNRGEC
heavy: EVQLVESGGGLVQPGGSLRLSCAASGFTFSGYGIHWVRQAPGKGLEWIGWISPSGGDTKYAQKFQGRVTISRDNSKNTLYLQLNSLRAEDTAVYYCARGGTVVYFDYWGQGTLVTVSSASTKGPSVFPLAPSSKSTSGGTAALGCLVKDYFPEPVTVSWNSGALTSGVHTFPAVLQSSGLYSLSSVVTVPSSSLGTQTYICNVNHKPSNTKVDKKVEPKSCDKTHTCPPCPAPELLGGPSVFLFPPKPKDTLMISRTPEVTCVVVDVSHEDPEVKFNWYVDGVEVHNAKTKPREEQYASTYRVVSVLTVLHQDWLNGKEYKCKVSNKALPAPIEKTISKAKGQPREPQVYTLPPSRKKLTKNQVKLTCLVKGFYPSDIAVEWESNGQPENNYKTTPPVLDCDGSFFLYSKLTVDKSRWQQGNVFSCSVMHEALHNHYTQKSLSLSPGK
chain: EVQLVESGGGLVQPGGSLRLSCAASGFSLSTSGVGVGWIRQAPGKGLEWIGEIYHSGSTYYNPSLKSRVTISRDNSKNTLYLQLNSLRAEDTAVYYCARYKYDYYDFDYWGQGTLVTVSSGGGGSGGGGSGGGGSGGGGSDIQLTQSPSSLSASVGDRVTITCRASQSVDFHGISFLHWYQQKPGKAPKLLIYAASSLQSGVPSRFSGSGSGTDFTLTISSLQPEDFATYYCQQSYRSPRTFGQGTKVEIKEPKSSDKTHTCPPCPAPELLGGPSVFLFPPKPKDTLMISRTPEVTCVVVDVSHEDPEVKFNWYVDGVEVHNAKTKPREEQYASTYRVVSVLTVLHQDWLNGKEYKCKVSNKALPAPIEKTISKAKGQPREPQVYTDPPSRDELTKNQVSLTCLVDGFYPSDIAVEWESNGQPENCYKTTPPVLDSDGSFFLYSKLTVDKSRWQQGNVFSCSVMHEALHNHYTQDSLSLSPGK
notes: anti-B7H3 Fab x CD28 scFv BC10601 (VH-VL)-Fc
B3 showed an EC50 in test [1] of 108 nM. For the same molecule, a half-maximal response in test [2] (EC50) required 5.73 nM. Besides, in test [3], the AUC was 4620, a half-maximal effect (EC50) was put at 142 nM and the “Max MFI” value came to 2860.

B4: TY30413 (bispecific antibody, human IgG1, kappa, N297A)
light: DIQLTQSPSSLSASVGDRVTITCRASQSIPSFLNWYQQKPGKAPKLLIYAASSLQSGVPSRFSGSGSGTDFTLTISSLQPEDFATYYCQHYISWPRQFTFGQGTKVEIKRTVAAPSVFIFPPSDEQLKSGTASVVCLLNNFYPREAKVQWKVDNALQSGNSQESVTEQDSKDSTYSLSSTLTLSKADYEKHKVYACEVTHQGLSSPVTKSFNRGEC
heavy: EVQLVESGGGLVQPGGSLRLSCAASGYSISSGYYWGWIRQAPGKGLEWIGIIYPSGGGTNYAQKFQGRVTISRDNSKNTLYLQLNSLRAEDTAVYYCARGGGLGFDYWGQGTLVTVSSASTKGPSVFPLAPSSKSTSGGTAALGCLVKDYFPEPVTVSWNSGALTSGVHTFPAVLQSSGLYSLSSVVTVPSSSLGTQTYICNVNHKPSNTKVDKKVEPKSCDKTHTCPPCPAPELLGGPSVFLFPPKPKDTLMISRTPEVTCVVVDVSHEDPEVKFNWYVDGVEVHNAKTKPREEQYASTYRVVSVLTVLHQDWLNGKEYKCKVSNKALPAPIEKTISKAKGQPREPQVYTLPPSRKKLTKNQVKLTCLVKGFYPSDIAVEWESNGQPENNYKTTPPVLDCDGSFFLYSKLTVDKSRWQQGNVFSCSVMHEALHNHYTQKSLSLSPGK
chain: EVQLVESGGGLVQPGGSLRLSCAASGFSLSTGGVGVSWIRQAPGKGLEWIGEIYHSGSTYYSPSLKSRVTISRDNSKNTLYLQLNSLRAEDTAVYYCARYEYYHYDFDYWGQGTLVTVSSGGGGSGGGGSGGGGSGGGGSDIQLTQSPSSLSASVGDRVTITCRASQSVDFHGISFLHWYQQKPGKAPKLLIYAASSLQSGVPSRFSGSGSGTDFTLTISSLQPEDFATYYCQQSYRSPRTFGQGTKVEIKEPKSSDKTHTCPPCPAPELLGGPSVFLFPPKPKDTLMISRTPEVTCVVVDVSHEDPEVKFNWYVDGVEVHNAKTKPREEQYASTYRVVSVLTVLHQDWLNGKEYKCKVSNKALPAPIEKTISKAKGQPREPQVYTDPPSRDELTKNQVSLTCLVDGFYPSDIAVEWESNGQPENCYKTTPPVLDSDGSFFLYSKLTVDKSRWQQGNVFSCSVMHEALHNHYTQDSLSLSPGK
notes: anti-PD-L1 Fab x CD28 scFv VH-VL (YYHY)-Fc
In test [4], B4 returned an EC50 of 26.8 nM.

B5: TY30123 (bispecific antibody, human IgG1, kappa, N297A)
light: DIQLTQSPSSLSASVGDRVTITCRASQSIRKYLNWYQQKPGKAPKLLIYAASTLQSGVPSRFSGSGSGTDFTLTISSLQPEDFATYFCSQGTHVPFTFGQGTKVEIKRTVAAPSVFIFPPSDEQLKSGTASVVCLLNNFYPREAKVQWKVDNALQSGNSQESVTEQDSKDSTYSLSSTLTLSKADYEKHKVYACEVTHQGLSSPVTKSFNRGEC
heavy: EVQLVESGGGLVQPGGSLRLSCAASGFTFSGYGIHWVRQAPGKGLEWIGWISPSGGDTKYAQKFQGRVTISRDNSKNTLYLQLNSLRAEDTAVYYCARGGTVVYFDYWGQGTLVTVSSASTKGPSVFPLAPSSKSTSGGTAALGCLVKDYFPEPVTVSWNSGALTSGVHTFPAVLQSSGLYSLSSVVTVPSSSLGTQTYICNVNHKPSNTKVDKKVEPKSCDKTHTCPPCPAPELLGGPSVFLFPPKPKDTLMISRTPEVTCVVVDVSHEDPEVKFNWYVDGVEVHNAKTKPREEQYASTYRVVSVLTVLHQDWLNGKEYKCKVSNKALPAPIEKTISKAKGQPREPQVYTLPPSRKKLTKNQVKLTCLVKGFYPSDIAVEWESNGQPENNYKTTPPVLDCDGSFFLYSKLTVDKSRWQQGNVFSCSVMHEALHNHYTQKSLSLSPGK
chain: EVQLVESGGGLVQPGGSLRLSCAASGFSLSTGGVGVGWIRQAPGKGLEWIGEIYHSGSTYYSPSLKSRVTISRDNSKNTLYLQLNSLRAEDTAVYYCARYGYYYYDFDYWGQGTLVTVSSGGGGSGGGGSGGGGSGGGGSDIQLTQSPSSLSASVGDRVTITCRASQSVDFHGISFLHWYQQKPGKAPKLLIYAASSLQSGVPSRFSGSGSGTDFTLTISSLQPEDFATYYCQQSYRSPRTFGQGTKVEIKEPKSSDKTHTCPPCPAPELLGGPSVFLFPPKPKDTLMISRTPEVTCVVVDVSHEDPEVKFNWYVDGVEVHNAKTKPREEQYASTYRVVSVLTVLHQDWLNGKEYKCKVSNKALPAPIEKTISKAKGQPREPQVYTDPPSRDELTKNQVSLTCLVDGFYPSDIAVEWESNGQPENCYKTTPPVLDSDGSFFLYSKLTVDKSRWQQGNVFSCSVMHEALHNHYTQDSLSLSPGK
notes: anti-B7H3 Fab x CD28 scFv BC10621 (VH-VL)-Fc
B5: the EC50 in test [1] came to 96.4 nM; in test [2], 3.59 nM; in test [3], 76.2 nM. Also, the AUC in test [3] was 3820. Further, in test [3], the “Max MFI” value turned out to be 1980.
